From patent publication US20230365662A1
Numbering of substitutions follows the chain as printed. Numbers in names are those of the source. Where “and” joins values, the source holds several entries; their conditions need not be identical. Equal entries are not always repeated.

B1: KB001 mouse Fab VL T100E (Fab, V domains shown)
VH: EVQLKQSGPGLVAPSQSLSITCTVSGFSLSIYSVHWVRQPPGKGLEWLGMIWGGGSSDYNSALKSRLSISKDNSKSQVFLKMNSLQTDDTAMYYCARNGNFYAMDYWGQGTSVTVSS
VL: QIVLTQSPAIMSASLGERVTMTCTASSSVSSSFLHWYQQKPGSSPQLWIYSTSNLASGVPARFSGSGSGTSYSLTISSMEAEDAATYYCHQYHHSPYIYEFGGGTKLEIK
B2: KB001 mouse Fab VL S27K/S68Y (Fab, V domains shown)
VH: B1 VH
VL: B1 VL with S27K, S68Y, E100T
B3: KB001 mouse Fab VL T100L (Fab, V domains shown)
VH: B1 VH
VL: B1 VL with E100L
B4: KB001 mouse Fab VL S28M (Fab, V domains shown)
VH: B1 VH
VL: B1 VL with S28M, E100T
B5: KB001 mouse Fab VL T100M (Fab, V domains shown)
VH: B1 VH
VL: B1 VL with E100M
B6: KB001 mouse Fab VL A25G (Fab, V domains shown)
VH: B1 VH
VL: B1 VL with A25G, E100T
B7: KB001 mouse Fab VL S26P (Fab, V domains shown)
VH: B1 VH
VL: B1 VL with S26P, E100T
B8: KB001 mouse Fab VL S27H (Fab, V domains shown)
VH: B1 VH
VL: B1 VL with S27H, E100T
B9: KB001 mouse Fab VL T24I (Fab, V domains shown)
VH: B1 VH
VL: B1 VL with T24I, E100T
B10: KB001 mouse Fab VL S30H (Fab, V domains shown)
VH: B1 VH
VL: B1 VL with S30H, E100T
B11: KB001 mouse Fab VL S28N (Fab, V domains shown)
VH: B1 VH
VL: B1 VL with S28N, E100T
B12: KB001 mouse Fab VL S26T (Fab, V domains shown)
VH: B1 VH
VL: B1 VL with S26T, E100T
B13: KB001 mouse Fab VL S27Y (Fab, V domains shown)
VH: B1 VH
VL: B1 VL with S27Y, E100T
B14: KB001 mouse Fab VL S30T (Fab, V domains shown)
VH: B1 VH
VL: B1 VL with S30T, E100T
B15: KB001 mouse Fab VL S30D (Fab, V domains shown)
VH: B1 VH
VL: B1 VL with S30D, E100T
B16: KB001 mouse Fab VL S30L (Fab, V domains shown)
VH: B1 VH
VL: B1 VL with S30L, E100T
B17: KB001 mouse Fab VL S30R (Fab, V domains shown)
VH: B1 VH
VL: B1 VL with S30R, E100T
B18: KB001 mouse Fab VL S27V (Fab, V domains shown)
VH: B1 VH
VL: B1 VL with S27V, E100T
B19: KB001 mouse Fab VL S30E (Fab, V domains shown)
VH: B1 VH
VL: B1 VL with S30E, E100T
B20: KB001 mouse Fab VL V29L (Fab, V domains shown)
VH: B1 VH
VL: B1 VL with V29L, E100T
B21: KB001 mouse Fab VL S28D (Fab, V domains shown)
VH: B1 VH
VL: B1 VL with S28D, E100T
B22: KB001 mouse Fab VL T24G (Fab, V domains shown)
VH: B1 VH
VL: B1 VL with T24G, E100T
B23: KB001 mouse Fab VL A25P (Fab, V domains shown)
VH: B1 VH
VL: B1 VL with A25P, E100T
B24: KB001 mouse Fab VL S30W (Fab, V domains shown)
VH: B1 VH
VL: B1 VL with S30W, E100T
B25: KB001 mouse Fab VL S28T/S12R (Fab, V domains shown)
VH: B1 VH
VL: B1 VL with S12R, S28T, E100T
B26: KB001 mouse Fab VL S27N (Fab, V domains shown)
VH: B1 VH
VL: B1 VL with S27N, E100T
B27: KB001 mouse Fab VL S27L (Fab, V domains shown)
VH: B1 VH
VL: B1 VL with S27L, E100T
B28: KB001 mouse Fab VL S27W (Fab, V domains shown)
VH: B1 VH
VL: B1 VL with S27W, E100T
B29: KB001 mouse Fab VL A25Y (Fab, V domains shown)
VH: B1 VH
VL: B1 VL with A25Y, E100T
B30: KB001 mouse Fab VL T24A (Fab, V domains shown)
VH: B1 VH
VL: B1 VL with T24A, E100T
B31: KB001 mouse Fab VL T24N (Fab, V domains shown)
VH: B1 VH
VL: B1 VL with T24N, E100T
B32: KB001 mouse Fab VL T24K/R18S (Fab, V domains shown)
VH: B1 VH
VL: B1 VL with R18S, T24K, E100T
B33: KB001 mouse Fab VL S28H (Fab, V domains shown)
VH: B1 VH
VL: B1 VL with S28H, E100T
B34: KB001 mouse Fab VL T24Q (Fab, V domains shown)
VH: B1 VH
VL: B1 VL with T24Q, E100T
B35: KB001 mouse Fab VL T24N/G67D (Fab, V domains shown)
VH: B1 VH
VL: B1 VL with T24N, G67D, E100T
B36: KB001 mouse Fab VL A25V (Fab, V domains shown)
VH: B1 VH
VL: B1 VL with A25V, E100T
B37: KB001 mouse Fab VL S27M (Fab, V domains shown)
VH: B1 VH
VL: B1 VL with S27M, E100T
B38: KB001 mouse Fab VL S26G (Fab, V domains shown)
VH: B1 VH
VL: B1 VL with S26G, E100T
B39: KB001 mouse Fab VL A25E (Fab, V domains shown)
VH: B1 VH
VL: B1 VL with A25E, E100T
B40: KB001 mouse Fab VL V29I (Fab, V domains shown)
VH: B1 VH
VL: B1 VL with V29I, E100T
B41: KB001 mouse Fab VL T24L (Fab, V domains shown)
VH: B1 VH
VL: B1 VL with T24L, E100T
B42: KB001 mouse Fab VL T100S (Fab, V domains shown)
VH: B1 VH
VL: B1 VL with E100S

Target: HRgpA-6H (Porphyromonas gingivalis) (UniProt P28784)
Sequence of UniProt P28784 (P28784 228-991): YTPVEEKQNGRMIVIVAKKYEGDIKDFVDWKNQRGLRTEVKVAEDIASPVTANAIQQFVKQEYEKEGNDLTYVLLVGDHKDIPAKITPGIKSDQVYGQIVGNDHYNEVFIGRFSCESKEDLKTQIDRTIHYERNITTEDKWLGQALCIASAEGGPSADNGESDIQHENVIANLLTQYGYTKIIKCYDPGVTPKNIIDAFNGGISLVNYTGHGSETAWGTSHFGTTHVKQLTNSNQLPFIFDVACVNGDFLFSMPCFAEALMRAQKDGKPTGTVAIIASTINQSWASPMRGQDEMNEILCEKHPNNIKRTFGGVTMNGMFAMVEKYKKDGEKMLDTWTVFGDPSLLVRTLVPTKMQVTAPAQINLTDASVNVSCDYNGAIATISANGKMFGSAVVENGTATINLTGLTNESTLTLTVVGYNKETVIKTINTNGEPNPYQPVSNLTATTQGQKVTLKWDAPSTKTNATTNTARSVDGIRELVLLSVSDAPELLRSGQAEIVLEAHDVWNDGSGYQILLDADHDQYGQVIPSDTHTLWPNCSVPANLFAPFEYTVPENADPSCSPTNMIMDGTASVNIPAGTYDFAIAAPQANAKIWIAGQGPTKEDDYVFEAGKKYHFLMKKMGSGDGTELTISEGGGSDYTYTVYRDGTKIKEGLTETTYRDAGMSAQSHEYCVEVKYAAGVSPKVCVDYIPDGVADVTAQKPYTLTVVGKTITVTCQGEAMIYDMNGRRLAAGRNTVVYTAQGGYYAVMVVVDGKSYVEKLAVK
Assay: ELISA, FASEBA Fab on coated HRgpA-6H

Binder	OD450nm	Ratio OD(Variant)/OD(WT)
B1	0.613 and 0.621 and 0.674	1.17 and 1.19 and 1.29
B2	0.736	0.981
B3	0.587 and 0.566	1.12 and 1.08
B4	0.706 and 0.675	0.941 and 0.899
B5	0.589	1.12
B6	0.668 and 0.699 and 0.673	0.853 and 0.893 and 0.86
B7	0.644 and 0.677	0.822 and 0.865
B8	0.664 and 0.63 and 0.726	0.885 and 0.839 and 0.967
B9	0.741	0.964
B10	0.808 and 0.747	0.937 and 0.867
B11	0.743	0.99
B12	0.761	0.972
B13	0.617	0.822
B14	0.838 and 0.817	0.972 and 0.948
B15	0.702 and 0.723	0.814 and 0.839
B16	0.813	0.943
B17	0.778 and 0.793 and 0.802	0.903 and 0.92 and 0.93
B18	0.645 and 0.646	0.859 and 0.861
B19	0.813	0.943
B20	0.751	0.871
B21	0.745 and 0.722	0.993 and 0.962

Binder	OD450nm	Ratio OD(Variant)/OD(WT)
B22	0.686 and 0.735	0.892 and 0.956
B23	0.742 and 0.766 and 0.749	0.948 and 0.978 and 0.957
B24	0.823	0.955
B25	0.747	0.995
B26	0.675 and 0.724 and 0.64	0.899 and 0.965 and 0.853
B27	0.649	0.865
B28	0.601	0.801
B29	0.755 and 0.757	0.964 and 0.967
B30	0.757	0.984
B31	0.715 and 0.8	0.93 and 1.04
B32	0.761	0.99
B33	0.719	0.958
B34	0.765	0.995
B35	0.755	0.982
B36	0.768	0.981
B37	0.709	0.945
B38	0.73	0.932
B39	0.655	0.837
B40	0.853	0.99
B41	0.753 and 0.752 and 0.667	0.979 and 0.978 and 0.867
B42	0.602 and 0.664 and 0.625	1.15 and 1.27 and 1.19
